Results: patent US20240280570A1
Like-named read-outs stand apart in the source and are kept apart here.

Experiments:
MCA-SpyTag peptide [1] = experiment: QCM-D, SpyTag peptide on HDT-coated gold, without BSA (data not shown)
[2] = biological target: SARS-CoV-2 S1 (Sino Biological 40591-V08B1); Spike Protein S1 subunit residues 1 - 685(R) His tagged (SARS-CoV-2) (UniProt P0DTC2); experiment: OECT sensor, PEDOT:PSS channel, nanobody on gate, target in buffer
[3] = biological target: SARS-CoV-2 S1 (Sino Biological 40591-V08B1); Spike Protein S1 subunit residues 1 - 685(R) His tagged (SARS-CoV-2) (UniProt P0DTC2)
[4] = biological target: SARS-CoV-2 S1 (Sino Biological 40591-V08B1); Spike Protein S1 subunit residues 1 - 685(R) His tagged (SARS-CoV-2) (UniProt P0DTC2); remark: listed apart in the source
[5] = biological target: SARS-CoV-2 S1 (Sino Biological 40591-V08B1); Spike Protein S1 subunit residues 1 - 685(R) His tagged (SARS-CoV-2) (UniProt P0DTC2); experiment: method not stated at this place (SPR of viral targets is described in paragraph 219)
[6] = biological target: SARS-CoV-2 S1 (Sino Biological 40591-V08B1); Spike Protein S1 subunit residues 1 - 685(R) His tagged (SARS-CoV-2) (UniProt P0DTC2); remark: listed apart in the source
MCA-SpyTag peptide [7] = biological target: MCA-SpyTag peptide
[8] = biological target: SARS-CoV-2 S1 (Sino Biological 40591-V08B1); Spike Protein S1 subunit residues 1 - 685(R) His tagged (SARS-CoV-2) (UniProt P0DTC2); remark: listed apart in the source
[9] = biological target: SARS-CoV-1 RBD (Sino Biological 40150-V08B2); Spike Receptor Binding Domain residues R306 - F527 His tagged (SARS-CoV-1) (UniProt P59594); experiment: OECT sensor, PEDOT:PSS channel, nanobody on gate, target in buffer
[10] = biological target: SARS-CoV-1 RBD (Sino Biological 40150-V08B2); Spike Receptor Binding Domain residues R306 - F527 His tagged (SARS-CoV-1) (UniProt P59594)

With “VHH72-8 aa-spyCatcher-3C cleavage site-His8” the mass density bound (QCM-D) (MCA-SpyTag peptide [1]) was 407 ng cm-2, the molecules bound per cm2 (QCM-D) (nanobodies per cm^2) (MCA-SpyTag peptide [1]) was 8.4e+12 and the LOD [2] was 0.00028 pM. The LOD [3] was 0.019 pM, the LOD [4] was 1.8e-08 pM and the Kd [5] was 23 nM. For the same substance, the LOD [6] was 1.2e-09 pM, the mass density bound (QCM-D) (MCA-SpyTag peptide [7]) was 430 ng cm-2 and the normalized response (NR) [8] was 30%.

“VHH72-8 aa-spyCatcher-3C cleavage site-His8 (VHH; other documents disagree on this pair)” gave an LOD [9] of 0.0015 pM and an LOD [10] of 1.6e-05 pM.
